Data: patent publication US20090054323A1 (published 2009)
Where no end group is shown, it is not given here.

B1: TN12-9 (peptide)
peptide: FDYCEGVEDPFTFGCDNH
notes: Peptide from phage display selection on Ang-2
B2: TN8-8 (peptide)
peptide: KRPCEEMWGGCNYD
notes: as for B1
B3: C17 (peptide)
peptide: QYGCDGFLYGCMIN
notes: as for B1
B4: L1-7 Peptide (peptide)
peptide: CGGGGGAQTNFMPMDDLEQRLYEQFILQQGLE
notes: Synthetic peptide with N-terminal Cys and 5Gly linker; also called L1-7(unPEGylated Peptide); L1-7 free peptide
B5: PEG3.4K(L1-7 Peptide)2 (peptide)
peptide: C(poly(ethylene glycol)‑bis‑maleimide 3.4 kDa)GGGGGAQTNFMPMDDLEQRLYEQFILQQGLE
modifications: also: two peptides joined through Cys1 by PEG-bis-maleimide 3.4 kDa, one on each end
B6: L1 (peptide)
peptide: KFNPLDELEETLYEQFTFQQ
notes: as for B1
B7: PEO4(L1-7 Peptide)2 (peptide)
peptide: C(1,11‑bis‑maleimidotetraethyleneglycol)GGGGGAQTNFMPMDDLEQRLYEQFILQQGLE
modifications: also: two peptides joined through Cys1 by 1,11-bis-maleimidotetraethyleneglycol, one on each end
B8: TN8-14 (peptide)
peptide: HQICKWDPWTCKHW
notes: as for B1

Tests used:
human Ang-2 [1] = target: T1, human Ang-2 (human, UniProt O15123 19-496, limits assumed); experiment: phage display selection and phage ELISA on Ang-2
T1 construct: Sources differ by assay: R&D Systems 623-AN (mixture of 2 truncated versions) for initial screening; also called hAng-2; huAng-2
T1 sequence (looked up): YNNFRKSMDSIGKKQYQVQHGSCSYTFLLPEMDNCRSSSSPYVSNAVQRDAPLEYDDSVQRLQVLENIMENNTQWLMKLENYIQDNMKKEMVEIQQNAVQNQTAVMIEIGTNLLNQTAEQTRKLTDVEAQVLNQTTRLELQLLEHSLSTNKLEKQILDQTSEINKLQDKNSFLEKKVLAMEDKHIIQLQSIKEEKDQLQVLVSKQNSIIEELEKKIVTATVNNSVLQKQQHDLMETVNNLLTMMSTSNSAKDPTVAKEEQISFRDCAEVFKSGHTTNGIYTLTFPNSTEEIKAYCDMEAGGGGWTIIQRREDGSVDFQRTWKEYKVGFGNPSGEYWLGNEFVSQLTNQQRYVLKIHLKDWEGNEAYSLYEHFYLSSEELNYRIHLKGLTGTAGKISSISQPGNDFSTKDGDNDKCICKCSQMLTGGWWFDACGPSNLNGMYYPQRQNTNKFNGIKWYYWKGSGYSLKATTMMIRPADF
Procedure: Three filamentous phage libraries, designated as “TN8-IX” (5×10⁹ independent transformants), “TN12-I” (1.4×10⁹ independent transformants), and “Linear” (2.3×10⁹ independent transformants) (all from Dyax Corp.), were used to select for Ang-2 binding phage. […] For all three libraries, the phage from the first round of selection were eluted only in a non-specific manner for further rounds of selection.
An XL-1 Blue MRF′ culture was grown until OD₆₀₀ reached about 0.5. About thirty μl of this culture was aliquoted into each well of a 96-well microtiter plate. About 10 μl of eluted phage (section 4) was added to each well and allowed to infect bacteria for about 15 minutes at room temperature. About 100 μL of LB media containing approximately 12.5 μg/ml of tetracycline and approximately 50 μg/ml of ampicillin were added to each well. The microtiter plate was then incubated with shaking overnight at about 37° C. The recombinant Ang-2 protein (about 1 μg/ml in PBS) was allowed to bind to the 96 well Maxisorp plates (NUNC) overnight at about 4° C. As a control, the pure streptavidin was coated onto a separate Maxisorp plate at about 2 μg/ml in PBS.
On the following day, liquid in the protein coated Maxisorp plates was discarded, and each well was blocked with about 300 μl of 5% milk solution at about 4° C. overnight (alternatively, 1 hour at room temperature). The milk solution was then discarded, and the wells were washed three times with the PBST solution. After the last washing step, about 50 μl of PBST-4% milk was added to each well of the protein coated Maxisorp plates.

human Ang-2 [2] = target: T1, human Ang-2; experiment: neutralization ELISA vs Tie-2-Fc

Binder | binding result (human Ang-2 [1]) | IC50 (human Ang-2 [2]) [nM]
B1 | binds | –
C(methoxy‑poly(ethylene glycol)‑maleimide 5 kDa)GGGGGAQTNFMPMDDLEQRLYEQFILQQGLE [mPEG5K-(L1-7 Peptide)] | – | 11.7
B2 | binds | –
B3 | binds | –
B4 | – | 0.49
QEECEWDPWTCEHM [TN8-Con4] | binds | –
B5 | – | 0.058
B6 | binds | –
KRPCEEIFGGCTYQ [TN8-Con1] | binds | –
B7 | – | 0.064
B8 | binds | –
